{"source": "paper PMC11871449", "target": "TDP-43 RRMs (RRM1-RRM2) (UniProt Q13148)", "sequence (Q13148 101-269)": "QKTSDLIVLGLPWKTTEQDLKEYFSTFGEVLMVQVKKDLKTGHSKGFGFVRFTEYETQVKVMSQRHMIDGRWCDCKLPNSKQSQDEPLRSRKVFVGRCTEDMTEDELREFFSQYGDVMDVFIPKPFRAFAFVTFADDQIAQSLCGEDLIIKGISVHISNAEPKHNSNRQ", "test": "EMSA (multiplexed)", "conditions": "20 mM Tris-HCl pH 7.5, 150 mM KCl, 5 mM MgCl2, 10% glycerol, 30 min, room temperature, 2 nM each labeled RNA (mEMSA), 5.5% TBE gel (4% for competition)", "key": {"[1]": {"conditions": "5 mM Mg2+, fluorophore-UTP incorporated during transcription"}, "[2]": {"conditions": "5 mM Mg2+, fluorophore-UTP incorporated during transcription (labeled form)"}}, "data": [{"sequence": "AACACCAUGCUGGUUAUUUUGGCGGCUGUAGUUGUGGGGGGAUGUGUGUGUGCACGUGUGUGUGUGUGUGUGUGUGUGUGUGUGUGUGUGUGUUCUGUGACCUCCUGUCCCCAUGGUACGUCCCACCCUGUCCCCAGAUCCCCUAUUCCCUCCACAAUAACAGAAACACUCCCAGGGACUCUGGGGAGAGGCUGAGGACAAAUACCUGCUGUCACUCCAGAGGACAUUUUUUUUAGCAAUAAAAUUGAG [SLC1A5[2620-2869] 3'UTR]", "values": [{"measurement": "Kd", "setting": "[1]", "value": 82, "unit": "nM"}]}, {"sequence": "AUCCCGCUGCUAUUAGAAUGCAUUGUGAAACGACUGGAGUAUGAUUAAAAGUUGUGUUCCCCAAUGCUUGGAGUAGUGAUUGUUGAAGGAAAAAAUCCAGCUGAGUGAUAAAGGCUGAGUGUUGAGGAAAUUUCUGCAGUUUUAAGCAGUCGUAUUUGUGAUUGAAGCUGAGUACAUUUUGCUGGUGUAUUUUUAGGUAAAAUGCUUUUUGUUCAUUUCUGGUGGUGGGAGGGGACUGAAGCCUUUAGUCUUUUCCAGAUGCAACCUUAAAAUCAGUGACAAGAAACAUUCCAAACAAGC [MALAT1[6638-6938]]", "values": [{"measurement": "Kd", "setting": "fluorophore-UTP incorporated during transcription", "value": 127, "unit": "nM"}]}, {"sequence": "GUGGGCUUUUCCAUUGUCCCCCUGGCCUCCAGGCUCCUCCUCUGCCUCUCCAUGGAGUGGGUGGGGAGGUGGUGGGGGCCGGCGUCCCCUGCGUGUGUGUGUGUGUGUGUGUGUGUGUGUGGAUGUAUUGACCUGUGUUUCCCAAGACAGCAGGUGCCACGGCCCGCCCCGCCUGCCAGCCCGAAUUCCCGUUCUCCUGUGUCUACUAACAAGGACGGAUCCAGCU [CSNK1E[2054-2264] 3'UTR]", "values": [{"measurement": "Kd", "setting": "[1]", "value": 101, "unit": "nM"}]}, {"sequence": "GAUUGAUGGUGGUGCCGAGGCAUGAAAGGCUAGUAUGAGCGAGAAAAGGAGAGAGCGCGUGCAGAGACUUGGUGGUGCAUAAUGGAUAUUUUUUAACUUGGCGAGAUGUGUCUCUCAAUCCUGUGGCUUUGGUGAGAGAGUGUGCG [TARDBP[2140-2283] 3'UTR]", "values": [{"measurement": "Kd", "setting": "[2]", "value": 272, "unit": "nM"}]}, {"sequence": "UGGCUAUCCUUUAAUGAUGCGUGUGGAAUGUGUGUGUGUGCUCAGGCAAUUAUUUUGCUAAGAAUGUGAAUUCAAGUGCAGCUCAAUACUAGCUUCAGUAUAAAAACUGUACAGAUUUUUGUAUAGCUGAUAAGAUUCUCUGUAGAGAAAAUACUUUUAAAAAAUGCAGGUUGUAGCUUUUUGAUGGGCUACUCAUACAGUUAGAUUUUACAGCUUCUGAUGUUGAAUGUUCCUAAAUAUUUAAUGGUUUUUUUAAUUUCUUGUGUAUGGUAGCACAGCAAAGCUU [HMGB2[739-1022] 3'UTR]", "values": [{"measurement": "Kd", "setting": "[1]", "value": 148, "unit": "nM"}]}, {"sequence": "GCGAGGAGCCUUUCAUCCGAAGGCGGGACGAUGCCGGAUAAUCGGCAGCCGAGGAACCGGCAGCCGAGGAUCCGCUCCGGGAACGAGCCUCGUUCCGCGCCCGCCAUGGAACCGGAUGGUCGCGGUGCCUGGGCCCACAGUCGCGCCGCGCUCGACCGCCUGGAGAAGCUGCUGCGCUGCUCGCGUUGUACUAACAUUCUGAGAGAGCC [BARD1[86-310] negative control]", "values": [{"measurement": "Kd", "setting": "[2]", "value": 1790, "unit": "nM"}]}]}
